Assay results published in US20080050387A1 (published 2008).

B2: AR N-terminus, full length ARN (ARN1-556) (receptor)
chain: MEVQLGLGRVYPRPPSKTYRGAFQNLFQSVREVIQNPGPRHPEAASAAPPGASLLLLQQQQQQQQQQQQQQQQQQQQQETSPRQQQQQQGEDGSPQAHRRGPTGYLVLDEEQQPSQPQSALECHPERGCVPEPGAAVAASKGLPQQLPAPPDEDDSAAPSTLSLLGPTFPGLSSCSADLKDILSEASTMQLLQQQQQEAVSEGSSSGRAREASGAPTSSKDNYLGGTSTISDNAKELCKAVSVSMGLGVEALEHLSPGEQLRGDCMYAPLLGVPPAVRPTPCAPLAECKGSLLDDSAGKSTEDTAEYSPFKGGYTKGLEGESLGCSGSAAAGSSGTLELPSTLSLYKSGALDEAAAYQSRDYYNFPLALAGPPPPPPPPHPHARIKLENPLDYGSAWAAAAAQCRYGDLASLHGAGAAGPGSGSPSAAASSSWHTLFTAEEGQLYGPCGGGGGGGGGGGGGGGGGGGGGGGGEAGAVAPYGYTRPPQGLAGQESDFTAPDVWYPGGMVSRVPYPSPTCVKSEMGPWMDSYSGPYGDMRLETARDHVLPIDYYFPPQ
B6: ARA67/PAT1, full length (585 amino acids) (other)
chain: MAAVELEWIPETLYNTAISAVVDNYIRSRRDIRSLPENIQFDVYYKLYQQGRLCQLGSEFCELEVFAKVLRALDKRHLLHHCFQALMDHGVKVASVLAYSFSRRCSYIAESDAAVKEKAIQVGFVLGGFLSDAGWYSDAEKVFLSCLQLCTLHDEMLHWFRAVECCVRLLHVRNGNCKYHLGEETFKLAQTYMDKLSKHGQQANKAALYGELCALLFAKSHYDEAYKWCIEAMKEITAGLPVKVVVDVLRQASKACVVKREFKKAEQLIKHAVYLARDHFGSKHPKYSDTLLDYGFYLLNVDNICQSVAIYQAALDIRQSVFGGKNIHVATAHEDLAYSSYVHQYSSGKFDNALFHAERAIGIITHILPEDHLLLASSKRVKALILEEIAIDCHNKETEQRLLQEAHDLHLSSLQLAKKAFGEFNVQTAKHYGNLGRLYQSMRKFKEAEEMHIKAIQIKEQLLGQEDYEVALSVGHLASLYNYDMNQYENAEKLYLRSIAIGKKLFGEGYSGLEYDYRGLIKLYNSIGNYEKVFEYHNVLSNWNRLRDRQYSVTDALEDVSTSPQSTEEVVQSFLISQNVEGPSC
notes: Used as GST-ARA67 on beads, as [35S]methionine-labeled ARA67, as GAL4 DBD fusion (pM-ARA67) and as HA-ARA67 (pKH3) in COS-1 cells; also called ARA671-585; GST-ARA67

Experiments:
[1] = target: T1, VP16-AR containing the residues 37 to 919 (human, UniProt P10275 37-920); test: mammalian two-hybrid in PC-3 cells, GAL4 DBD-N-hRad9 + VP16-AR, 10 nM DHT
T1 construct: also called pCMX-VP16-AR; full length AR fused to VP16
T1 sequence: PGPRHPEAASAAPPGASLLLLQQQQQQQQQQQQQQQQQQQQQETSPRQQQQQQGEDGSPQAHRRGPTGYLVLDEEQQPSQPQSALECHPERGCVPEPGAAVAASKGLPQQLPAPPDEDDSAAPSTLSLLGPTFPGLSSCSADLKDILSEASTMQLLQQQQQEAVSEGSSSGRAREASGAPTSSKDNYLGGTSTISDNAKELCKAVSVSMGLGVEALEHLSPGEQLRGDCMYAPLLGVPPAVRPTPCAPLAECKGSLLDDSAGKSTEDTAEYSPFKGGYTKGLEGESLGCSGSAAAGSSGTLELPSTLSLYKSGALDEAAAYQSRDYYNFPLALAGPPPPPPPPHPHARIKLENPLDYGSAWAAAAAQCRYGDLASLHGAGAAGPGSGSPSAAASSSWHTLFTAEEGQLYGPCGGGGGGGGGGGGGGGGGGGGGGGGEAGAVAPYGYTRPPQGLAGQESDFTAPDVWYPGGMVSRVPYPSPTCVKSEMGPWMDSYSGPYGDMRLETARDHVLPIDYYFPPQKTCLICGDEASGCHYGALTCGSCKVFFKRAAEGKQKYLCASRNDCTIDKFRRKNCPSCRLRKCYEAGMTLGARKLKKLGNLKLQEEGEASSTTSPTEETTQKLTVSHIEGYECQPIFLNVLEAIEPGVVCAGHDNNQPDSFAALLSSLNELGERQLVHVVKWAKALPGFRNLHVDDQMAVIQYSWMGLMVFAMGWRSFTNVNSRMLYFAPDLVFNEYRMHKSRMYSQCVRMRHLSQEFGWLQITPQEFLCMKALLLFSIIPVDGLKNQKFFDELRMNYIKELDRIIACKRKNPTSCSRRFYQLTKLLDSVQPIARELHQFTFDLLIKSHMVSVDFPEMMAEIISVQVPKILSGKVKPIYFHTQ

[2] = target: B6; test: mammalian two-hybrid in H1299 cells, pM-ARA67 + pVP16-ARN, pG5-Luc
[3] = target: B2; test: GST pull-down: GST-ARA67 fragments with 35S-labeled ARN
[4] = target: T1, VP16-AR containing the residues 37 to …; test: mammalian two-hybrid in PC-3 cells, GAL4 DBD-hRad9 constructs + VP16-AR, 10 nM DHT
[5] = target: T2, androgen receptor (AR), full length (human, UniProt P10275 1-920); test: GST pull-down: GST-ARA67 with 35S-labeled AR, with or without 10 uM DHT
T2 construct: also called AR-FL; pCMV-AR
T2 sequence: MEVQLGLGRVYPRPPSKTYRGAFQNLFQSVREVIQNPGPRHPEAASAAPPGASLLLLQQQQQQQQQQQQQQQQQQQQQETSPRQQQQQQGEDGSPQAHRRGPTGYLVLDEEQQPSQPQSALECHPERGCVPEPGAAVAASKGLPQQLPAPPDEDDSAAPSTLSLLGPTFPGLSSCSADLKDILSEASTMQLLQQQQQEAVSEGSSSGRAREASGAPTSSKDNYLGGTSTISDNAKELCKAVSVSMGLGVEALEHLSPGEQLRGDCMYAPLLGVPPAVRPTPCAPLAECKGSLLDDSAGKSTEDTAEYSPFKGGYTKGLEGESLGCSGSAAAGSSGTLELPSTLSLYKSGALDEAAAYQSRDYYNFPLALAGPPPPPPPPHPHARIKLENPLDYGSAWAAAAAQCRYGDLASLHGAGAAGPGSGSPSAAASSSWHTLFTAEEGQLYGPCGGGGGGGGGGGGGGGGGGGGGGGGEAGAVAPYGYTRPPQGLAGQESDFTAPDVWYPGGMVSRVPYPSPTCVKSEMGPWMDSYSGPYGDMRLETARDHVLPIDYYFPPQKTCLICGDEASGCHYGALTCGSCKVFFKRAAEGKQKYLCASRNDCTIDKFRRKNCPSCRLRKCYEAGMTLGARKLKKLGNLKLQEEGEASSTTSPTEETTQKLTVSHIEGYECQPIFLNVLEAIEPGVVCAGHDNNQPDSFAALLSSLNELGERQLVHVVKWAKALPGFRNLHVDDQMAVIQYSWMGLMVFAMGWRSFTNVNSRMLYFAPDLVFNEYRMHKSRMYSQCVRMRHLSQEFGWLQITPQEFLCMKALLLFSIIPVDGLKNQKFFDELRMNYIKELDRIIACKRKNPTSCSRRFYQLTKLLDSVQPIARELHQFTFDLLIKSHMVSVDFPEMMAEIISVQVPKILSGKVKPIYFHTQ
Description: Pulled-down proteins were separated on SDS-PAGE and visualized by autoradiography. […] After transfection cells were treated with or without 10 nM DHT for 24 h before harvesting. 500 μg total cell lysate proteins from each samples were immunoprecipitated with anti-AR antibody for Western blot analysis with anti-AR and anti-HA antibody (Roche).
The immunoprecipitates were analyzed by Western blotting.

AR DBD-LBD = target: T3, AR DBD-LBD (human, UniProt P10275 557-920); test: yeast two-hybrid, liquid β-gal assay, bait GAL4 DBD-AR-DBD-LBD
T3 construct: also called GAL4-DBD-AR-DBD-LBD; GAL4-AR-DBD-LBD
T3 sequence: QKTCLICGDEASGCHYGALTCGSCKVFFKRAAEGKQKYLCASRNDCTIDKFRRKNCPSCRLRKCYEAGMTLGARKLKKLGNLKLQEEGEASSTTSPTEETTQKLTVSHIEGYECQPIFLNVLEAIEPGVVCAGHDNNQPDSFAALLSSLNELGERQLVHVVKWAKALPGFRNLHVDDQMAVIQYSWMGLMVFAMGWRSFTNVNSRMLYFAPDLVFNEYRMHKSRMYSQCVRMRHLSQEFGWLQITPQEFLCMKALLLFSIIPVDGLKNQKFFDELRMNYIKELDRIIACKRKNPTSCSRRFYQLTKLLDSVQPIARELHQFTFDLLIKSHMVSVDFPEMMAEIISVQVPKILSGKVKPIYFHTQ
Description: Liquid β-gal assay was performed as described previously.
In order to screen proteins with ligand-dependent interaction with AR, the human AR DBD-LBD was fused with the DBD of GAL4 functioned as bait in yeast two-hybrid screening (FIG. 23A). A pretransformed normal human ovary cDNA library was screened in the presence of 10 nM DHT.

B1: PCNA-like domain of hRad9 (N-hRad9, aa 1-270) (other)
chain: MKCLVTGGNVKVLGKAVHSLSRIGDELYLEPLEDGLSLRTVNSSRSAYACFLFAPLFFQQYQAATPGQDLLRCKILMKSFLSVFRSLAMLEKTVEKCCISLNGRSSRLVVQLHCKFGVRKTHNLSFQDCESLQAVFDPASCPHMLRAPARVLGEAVLPFSPALAEVTLGIGRGRRVILRSYHEEEADSTAKAMVTEMCLGEEDFQQLQAQEGVAITFCLKEFRGLLSFAESANLNLSIHFDAPGRPAIFTIKDSLLDGHFVLATLSDTDS
notes: GAL4 DBD fusion (pM) in the two-hybrid assay; Flag-tagged (pCDNA3-Flag) in the AR N/C assay; also called N-terminus of hRad9
[1]
  binding result: no binding

## B2
[2]
  binding result: binds

B3: ARA67 281-550 (other)
chain: GSKHPKYSDTLLDYGFYLLNVDNICQSVAIYQAALDIRQSVFGGKNIHVATAHEDLAYSSYVHQYSSGKFDNALFHAERAIGIITHILPEDHLLLASSKRVKALILEEIAIDCHNKETEQRLLQEAHDLHLSSLQLAKKAFGEFNVQTAKHYGNLGRLYQSMRKFKEAEEMHIKAIQIKEQLLGQEDYEVALSVGHLASLYNYDMNQYENAEKLYLRSIAIGKKLFGEGYSGLEYDYRGLIKLYNSIGNYEKVFEYHNVLSNWNRLRDRQ
notes: GST fusion on beads
[3]
  binding result: binds

B4: ARA67 8-140 (other)
chain: WIPETLYNTAISAVVDNYIRSRRDIRSLPENIQFDVYYKLYQQGRLCQLGSEFCELEVFAKVLRALDKRHLLHHCFQALMDHGVKVASVLAYSFSRRCSYIAESDAAVKEKAIQVGFVLGGFLSDAGWYSDAE
notes: GST fusion on beads
[3]
  binding result: binds

B5: C-terminus of hRad9 (aa 269-391) (other)
chain: DSHSQDLGSPERHQPVPQLQAHSTPHPDDFANDDIDSYMIAMETTIGNEGSRVLPSISLSPGPQPPKSPGPHSEEEDEAEPSTVPGTPPPKKFRSLFFGSILAPVRSPQGPSPVLAEDSEGEG
notes: GAL4 DBD fusion (pM) in the two-hybrid assay; Flag-tagged (pCDNA3-Flag) in the AR N/C assay; also called C-hRad9; hRad9 C-terminus
[4]
  binding result: binds

## B6
[5]
  binding result: binds

B7: GAL4 activation domain alone (other, UniProt P04386 768-881, looked up)
chain: ANFNQSGNIADSSLSFTFTNSSNGPNLITTQTNSQALSQPIASSNVHDNFMNNEITASKIDDGNNSKPLSPGWTDQTAYNAFGITTGMFNTTTMDDVYNYLFDDEDTPPNPKKE
notes: Negative control; also called GAL4-AD
AR DBD-LBD
  binding result: no binding
